Where only a bound is given, the exact number is not on record here.

The target in experiment [1] is human αVβ3/5 integrins on human tumor cells (A375.S2, MDA-MB-231, A2780, HT29, A549) (human) (UniProt P06756). In words: cell-based or functional assay. Also on record: IC50 of doxorubicin, integrin targeted liposome-entrapped dox 90:1, murine melanoma B16-F10 cells (negative control): unit not given beside the values.
Experiment [2] deals with murine αVβ3/5 integrin (murine melanoma cell line B16F10, negative control) (murine) (UniProt P43406). Nature of the experiment: cell-based or functional assay. Also on record: IC50 of doxorubicin, integrin targeted liposome-entrapped dox 90:1, murine melanoma B16-F10 cells (negative control): unit not given beside the values.
murine αVβ3/5 integrin (murine melanoma cell line B16F10, negative control) (murine), sequence (P43406 31-1044, form in doubt, chain 1 of 3): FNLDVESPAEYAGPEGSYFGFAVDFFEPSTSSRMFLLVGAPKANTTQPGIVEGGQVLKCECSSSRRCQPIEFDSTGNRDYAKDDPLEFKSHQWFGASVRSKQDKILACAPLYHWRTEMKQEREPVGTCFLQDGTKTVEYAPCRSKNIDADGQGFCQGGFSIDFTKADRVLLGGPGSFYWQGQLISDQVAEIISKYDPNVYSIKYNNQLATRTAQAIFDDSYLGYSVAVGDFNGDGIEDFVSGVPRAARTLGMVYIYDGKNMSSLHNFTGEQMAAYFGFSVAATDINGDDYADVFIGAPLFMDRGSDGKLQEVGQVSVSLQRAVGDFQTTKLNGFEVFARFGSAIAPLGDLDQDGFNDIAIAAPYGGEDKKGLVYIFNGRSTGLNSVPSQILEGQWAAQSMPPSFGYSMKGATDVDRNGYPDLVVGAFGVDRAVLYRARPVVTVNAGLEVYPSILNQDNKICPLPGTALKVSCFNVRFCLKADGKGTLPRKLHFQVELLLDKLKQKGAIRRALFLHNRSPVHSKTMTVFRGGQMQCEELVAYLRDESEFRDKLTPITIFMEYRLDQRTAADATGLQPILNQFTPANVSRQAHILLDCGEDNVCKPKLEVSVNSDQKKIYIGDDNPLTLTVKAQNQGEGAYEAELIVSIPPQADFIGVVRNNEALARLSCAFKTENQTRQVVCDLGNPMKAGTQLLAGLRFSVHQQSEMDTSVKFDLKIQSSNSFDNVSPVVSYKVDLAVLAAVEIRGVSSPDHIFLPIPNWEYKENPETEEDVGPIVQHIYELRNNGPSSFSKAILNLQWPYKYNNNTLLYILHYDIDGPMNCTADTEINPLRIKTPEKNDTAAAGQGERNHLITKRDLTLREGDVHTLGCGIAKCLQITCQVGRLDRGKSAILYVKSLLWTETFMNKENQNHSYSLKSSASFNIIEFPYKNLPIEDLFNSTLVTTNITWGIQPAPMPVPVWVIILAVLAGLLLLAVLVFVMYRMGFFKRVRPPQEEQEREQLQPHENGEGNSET
murine αVβ3/5 integrin (murine melanoma cell line B16F10, negative control) (murine), sequence (O54890 26-787, form in doubt, chain 2 of 3, further chain): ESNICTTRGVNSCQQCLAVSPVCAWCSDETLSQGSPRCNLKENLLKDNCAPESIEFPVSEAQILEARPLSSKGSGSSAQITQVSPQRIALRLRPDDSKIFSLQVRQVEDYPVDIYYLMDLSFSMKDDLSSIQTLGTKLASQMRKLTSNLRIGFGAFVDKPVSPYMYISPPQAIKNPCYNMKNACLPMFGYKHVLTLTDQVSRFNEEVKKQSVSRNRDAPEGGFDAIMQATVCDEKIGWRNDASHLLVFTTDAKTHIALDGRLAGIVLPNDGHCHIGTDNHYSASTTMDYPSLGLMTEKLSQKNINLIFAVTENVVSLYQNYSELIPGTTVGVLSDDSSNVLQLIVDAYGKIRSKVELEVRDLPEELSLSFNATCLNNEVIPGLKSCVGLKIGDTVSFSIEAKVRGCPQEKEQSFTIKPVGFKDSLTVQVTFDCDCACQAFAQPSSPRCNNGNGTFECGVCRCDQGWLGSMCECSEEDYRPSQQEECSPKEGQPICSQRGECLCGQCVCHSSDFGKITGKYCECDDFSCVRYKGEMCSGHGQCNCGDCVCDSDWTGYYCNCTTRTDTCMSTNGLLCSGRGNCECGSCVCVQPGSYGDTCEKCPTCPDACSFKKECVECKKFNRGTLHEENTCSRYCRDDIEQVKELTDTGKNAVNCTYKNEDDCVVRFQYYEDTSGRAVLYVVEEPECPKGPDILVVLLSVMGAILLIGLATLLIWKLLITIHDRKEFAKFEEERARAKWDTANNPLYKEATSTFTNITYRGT
murine αVβ3/5 integrin (murine melanoma cell line B16F10, negative control) (murine), sequence (O70309 24-798, form in doubt, chain 3 of 3, further chain): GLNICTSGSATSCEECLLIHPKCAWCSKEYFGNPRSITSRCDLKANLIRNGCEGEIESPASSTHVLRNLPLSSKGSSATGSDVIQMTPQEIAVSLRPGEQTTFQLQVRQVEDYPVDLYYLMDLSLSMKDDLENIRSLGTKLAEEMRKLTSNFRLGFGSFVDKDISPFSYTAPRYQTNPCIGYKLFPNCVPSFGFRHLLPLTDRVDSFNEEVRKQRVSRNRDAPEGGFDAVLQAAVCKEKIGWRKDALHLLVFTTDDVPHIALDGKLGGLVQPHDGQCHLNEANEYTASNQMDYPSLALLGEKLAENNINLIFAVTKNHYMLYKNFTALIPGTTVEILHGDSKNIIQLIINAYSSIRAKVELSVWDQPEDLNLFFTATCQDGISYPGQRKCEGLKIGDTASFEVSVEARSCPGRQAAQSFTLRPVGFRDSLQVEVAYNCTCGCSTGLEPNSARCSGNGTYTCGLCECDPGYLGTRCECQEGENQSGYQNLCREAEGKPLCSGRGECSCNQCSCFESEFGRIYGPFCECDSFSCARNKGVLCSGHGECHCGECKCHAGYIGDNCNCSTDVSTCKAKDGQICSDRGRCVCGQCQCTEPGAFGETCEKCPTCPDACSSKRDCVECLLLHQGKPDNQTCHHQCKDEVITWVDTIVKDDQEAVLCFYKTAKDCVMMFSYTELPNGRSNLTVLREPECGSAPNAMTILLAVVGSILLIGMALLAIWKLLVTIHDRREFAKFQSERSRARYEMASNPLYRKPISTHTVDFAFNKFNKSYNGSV

In the case of “CNTO95 Fab′ (from pepsin F(ab′)2, reduced and reoxidized) conjugated to MalPEG-DSPE on the surface of liposomes”, in experiment [1], the Increase (ratio of IC50 of liposome-entrapped dox to IC50 of integrin-targeted 90:1), breast cancer MDA-MB-231 cells was 5 fold; the Increase (ratio of IC50 of liposome-entrapped dox to IC50 of integrin-targeted 90:1), colon cancer HT29 cells is 1.1 fold; the Increase (ratio of IC50 of liposome-entrapped dox to IC50 of integrin-targeted 90:1), lung cancer A549 cells is 1 fold; the Increase (ratio of IC50 of liposome-entrapped dox to IC50 of integrin-targeted 90:1), melanoma A375.S2 cells was determined as 29 fold. Besides, the Increase (ratio of IC50 of liposome-entrapped dox to IC50 of integrin-targeted 90:1), ovarian cancer A2780 cells in experiment [1] was 29 fold. In experiment [2], the IC50 of doxorubicin, integrin targeted liposome-entrapped dox 90:1, murine melanoma B16-F10 cells (negative control) is over 200 and the Increase (ratio of IC50 of liposome-entrapped dox to IC50 of integrin-targeted 90:1), murine melanoma B16-F10 cells (negative control) worked out at 1 fold.

Source of the values: patent US20090175784A1.
